Results taken from FireProtDB (doi:10.1016/s0014-5793(99)00158-1).

B1: Ribonuclease wild type, P00649 (protein)
chain: MKKISSVFTMFALIAAILFSGFIPQQAYAETPLTQTATNETATIQLTSDVHTLAVINTFDGVADYLIRYKRLPDNYITKSQASALGWVASKGNLAEVAPGKSIGGDVFSNREGRLPSASGRTWREADINYVSGFRNADRLVYSSDWLIYKTTDHYATFTRIR
B2: Barstar wild type, P11540 (protein)
chain: MKKAVINGEQIRSISDLHQTLKKELALPEYYGENLDALWDCLTGWVEYPLVLEWRQFEQSKQLTENGAESVLQVFREAKAEGCDITIILS
B3: Ribonuclease wild type, P00648 (protein)
chain: MMKMEGIALKKRLSWISVCLLVLVSAAGMLFSTAAKTETSSHKAHTEAQVINTFDGVADYLQTYHKLPDNYITKSEAQALGWVASKGNLADVAPGKSIGGDIFSNREGKLPGKSGRTWREADINYTSGFRNSDRILYSSDWLIYKTTDHYQTFTKIR

Conditions: pH 6.2, Thermal, DSC, Na-acetate 10 mM, NaCl 0.05 M, reversible: yes, whole UniProt chain shown

Protein | Tm (Bacillus intermedius) | unfolding enthalpy (calorimetric) (Bacillus intermedius) | unfolding enthalpy (van 't Hoff) (Bacillus intermedius) | Tm (Bacillus amyloliquefaciens) | unfolding enthalpy (calorimetric) (Bacillus amyloliquefaciens) | unfolding enthalpy (van 't Hoff) (Bacillus amyloliquefaciens)
B1 | 56.5 °C | 124 kcal/mol | 126 kcal/mol |  |  | 
B2 |  |  |  | 73.3 °C | 53 kcal/mol | 76 kcal/mol
B3 |  |  |  | 54.5 °C | 129 kcal/mol | 130 kcal/mol
